Legend:
[1] = target: T1, human Cathepsin K (Homo sapiens, UniProt P43235); test: Cathepsin K assay, hydrolysis of conjugates by human Cathepsin K; assay type: biochemical; conditions: conjugate 100 uM, CatK 0.2 uM, pH 5.5, 37 C
T1 construct: purchased Sigma-Aldrich; host or cells: E. coli
T1 sequence (P43235 115-329): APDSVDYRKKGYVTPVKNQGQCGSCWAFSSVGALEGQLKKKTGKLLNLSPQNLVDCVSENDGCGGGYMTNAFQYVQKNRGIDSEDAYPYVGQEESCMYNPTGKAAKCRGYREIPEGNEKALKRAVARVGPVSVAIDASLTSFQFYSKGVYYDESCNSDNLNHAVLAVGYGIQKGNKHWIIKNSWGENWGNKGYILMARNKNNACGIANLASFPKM
Protocol: (§1) Cathepsin K rat (recombinant, expressed in E. coli) was obtained from Merck as a gift. […] Enzyme activity was assayed using the Cathepsin K standard substrate Z-Leu-Arg-AMC. […] The appearances of released self-immolative linker 4-aminobenyl alcohol were recorded.

[2] = target: T2, rat Cathepsin K (Rattus norvegicus, UniProt O35186); test: Cathepsin K assay, hydrolysis of conjugates by rat Cathepsin K; assay type: biochemical; conditions: conjugate 100 uM, CatK 0.2 uM, pH 5.5, 37 C
T2 construct: Merck (gift); host or cells: E. coli
T2 sequence (O35186 115-329): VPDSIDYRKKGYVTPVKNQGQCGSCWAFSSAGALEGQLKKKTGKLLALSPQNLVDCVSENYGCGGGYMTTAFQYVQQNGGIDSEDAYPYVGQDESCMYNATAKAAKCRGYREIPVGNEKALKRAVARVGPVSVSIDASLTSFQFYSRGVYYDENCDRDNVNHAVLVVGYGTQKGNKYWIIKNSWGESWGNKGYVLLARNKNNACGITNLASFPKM
Protocol: as §1

[3] = Analysis of the blood samples, level of tritiated 17a in blood; assay type: in vivo; conditions: rat, tail vein bolus, [3H]-17a
Protocol: (§2) Female Sprague Dawley rats (Charles River) were about 13 weeks old when received. They were acclimatized to the facility and operators, and were randomly divided to five groups: 6 hour, 1-, 7, 14 and -28 day. Dose: [^3H]-17a: 8.90 μCi/rat, [^14C]-17a 1.77 uCi/rat, and 17a 5.0 mg/kg. Formulation: conjugate 17a was suspended in Poloxamer 188 solution 10%, and adjusted to pH 8.0 by NaHCO3, then diluted by equal volume of PBS. The dosing was done with a fixed volume of 500 μL. The bolus injection and blood sampling were done via the tail vein. […] Long bones were harvested and counted.
Three Female Sprague Dawley rats (Charles River) were about 23 weeks old when received. They were acclimatized to the facility and operators. Dose: [^3H]-17a: 31.0 μCi/rat. Blood samples (0.5 mL per time point per rat) were taken from the 6-hour group of rats 0.5, 1, 2, 4, 6 hour and placed in heparinized micro-centrifuge tubes. Blood samples from the (500 μL) were centrifuged at ˜5000×G until plasma had separated. 100 μL of the supernatant was analyzed in a Harvey OX-300 biological oxidizer using the four-minute program. The collected scintillation mixture was counted on a Beckman Coulter LS-6500 scintillation counter. The counting time was two minute.

[4] = Rat organ distribution, uptake and release of conjugate 17a in rat bone; assay type: in vivo
Protocol: as §2
After 6 h, 1, 7, 14, 28 days three animals were weighed, sacrificed by CO2 and blood, fat, muscle, brain, heart, kidney, spleen, liver and bone were dissected and cleaned free of any loose tissue. The amount of radioactivity was determined by incineration in a R. J. Harvey OX300 Biological Oxidizer. The percent of the compound retained in the skeleton and the other organs at each time point was calculated by measuring activity per gram (μCi/g) in the collected samples and extrapolating to total activity retained in the skeleton and the other organs, the weight of skeleton was calculated by 8% of the body weight, the weight of the other organs was measured by balance. […] Table 3 and FIGS. 7A-E show rat organ distribution, uptake and release of a representative conjugate compound 17a.

## N=C(N)NCCC[C@H](NC(=O)[C@@H]1CCCN1C(=O)OCc1ccccc1)C(=O)Nc1ccc(COC(=O)NCCCC(O)(P(=O)(O)O)P(=O)(O)O)cc1 [Compound 6, (4-((((4-((S)-2-((S)-1-((benzyloxy)carbonyl)pyrrolidine-2-carboxamido)-5-guanidinopentanamido)benzyl)oxy)carbonyl)amino)-1-hydroxybutane-1,1-diyl)bis(phosphonic acid)]
[1]; 1 hour
  hydrolysis by Hum CatK: 90%
[1]; 2 hour
  hydrolysis by Hum CatK: 98%
[2]; 1 hour
  hydrolysis by Rat CatK: 5%
[2]; 2 hour
  hydrolysis by Rat CatK: 10%
[2]; 20 hour
  hydrolysis by Rat CatK: 52%

## CC(C)C[C@H](NC(=O)OCc1ccccc1)C(=O)N[C@@H](CCCNC(=N)N)C(=O)Nc1ccc(COC(=O)NCCCC(O)(P(=O)(O)O)P(=O)(O)O)cc1 [Compound 7]
[1]; 1 hour
  hydrolysis by Hum CatK: 66%
[1]; 2 hour
  hydrolysis by Hum CatK: 75%
[1]; 3 hour
  hydrolysis by Hum CatK: 79 (3 hour) %
[2]; 1 hour
  hydrolysis by Rat CatK: 73%
[2]; 2 hour
  hydrolysis by Rat CatK: 80%
[2]; 20 hour
  hydrolysis by Rat CatK: 95%

## N=C(N)NCCC[C@H](NC(=O)[C@@H]1CCCN1C(=O)CNC(=O)OCc1ccccc1)C(=O)Nc1ccc(COC(=O)NCCCC(O)(P(=O)(O)O)P(=O)(O)O)cc1 [Compound 8, (4-((((4-((S)-2-((S)-1-(((benzyloxy)carbonyl)glycyl)pyrrolidine-2-carboxamido)-5-guanidinopentanamido)benzyl)oxy)carbonyl)amino)-1-hydroxybutane-1,1-diyl)bis(phosphonic acid)]
[1]; 1 hour
  hydrolysis by Hum CatK: 91%
[1]; 2 hour
  hydrolysis by Hum CatK: 100%
[2]; 1 hour
  hydrolysis by Rat CatK: 11%
[2]; 2 hour
  hydrolysis by Rat CatK: 20%
[2]; 20 hour
  hydrolysis by Rat CatK: 80%

## CCOC(=O)CCCCCCN1C(=O)CC[C@@H]1/C=C/[C@@H](OC(=O)Cc1ccc(COC(=O)N[C@@H](CC(C)C)C(=O)N[C@@H](CCCNC(=N)N)C(=O)Nc2ccc(COC(=O)NCCCC(O)(P(=O)(O)O)P(=O)(O)O)cc2)cc1)C(F)(F)c1ccccc1 [Compound 17a, (4-((((4-((S)-2-((S)-2-((((4-(2-(((R,E)-4-((R)-1-(7-ethoxy-7-oxoheptyl)-5-oxopyrrolidin-2-yl)-1,1-difluoro-1-phenylbut-3-en-2-yl)oxy)-2-oxoethyl)benzyl)oxy)carbonyl)amino)-4-methylpentanamido)-5-guanidinopentanamido)benzyl)oxy)carbonyl)amino)-1-hydroxybutane-1,1-diyl)bis(phosphonic acid)]
[3]
  clearance from circulating blood, t1/2: ~30 min
[4]; 17a 5.0 mg/kg, tail vein bolus
  behavior or reaction of dosed animals: no unusual behavior or reaction to the drug treatment
[4]; at 6 hours
  distribution of radio-activity: most radio-activity was observed in liver and bones
[4]; by 3H
  uptake: 2%
[4]; by 14C
  uptake: ~5%
[4]; by 7 days
  distribution of radio-activity: only bones had a significant amount of radio-activity
[4]; tail vein bolus, 3H, 1-day
  Percentage of dose in Bone: 2.12%
  Percentage of dose in Brain: 0.025%
  Percentage of dose in Heart: 0.021%
  Percentage of dose in Kidney: 0.11%
  Percentage of dose in Liver: 2.33%
  Percentage of dose in Spleen: 0.22%
[4]; tail vein bolus, 3H, 6-hour
  Percentage of dose in Bone: 2.10%
  Percentage of dose in Brain: 0.022%
  Percentage of dose in Heart: 0.025%
  Percentage of dose in Kidney: 0.21%
  Percentage of dose in Liver: 8.95%
  Percentage of dose in Spleen: 0.35%
[4]; tail vein bolus, 3H, 7-day
  Percentage of dose in Bone: 1.30%
  Percentage of dose in Brain: LOD
  Percentage of dose in Heart: 0.014%
  Percentage of dose in Kidney: 0.053%
  Percentage of dose in Liver: 0.48%
  Percentage of dose in Spleen: 0.076%
[4]; tail vein bolus, 3H, 14-day
  Percentage of dose in Bone: 0.80%
  Percentage of dose in Brain: LOD
  Percentage of dose in Heart: LOD
  Percentage of dose in Kidney: 0.026%
  Percentage of dose in Liver: 0.30%
  Percentage of dose in Spleen: 0.039%
[4]; tail vein bolus, 3H, 28-day
  Percentage of dose in Bone: 0.74%
  Percentage of dose in Brain: LOD
  Percentage of dose in Heart: LOD
  Percentage of dose in Kidney: 0.017%
  Percentage of dose in Liver: 0.08%
  Percentage of dose in Spleen: 0.037%
[4]; tail vein bolus, 14C, 1-day
  Percentage of dose in Bone: 4.63%
  Percentage of dose in Brain: 0.012%
  Percentage of dose in Heart: 0.009%
  Percentage of dose in Kidney: 0.047%
  Percentage of dose in Liver: 2.50%
  Percentage of dose in Spleen: 0.23%
[4]; tail vein bolus, 14C, 6-hour
  Percentage of dose in Bone: 5.52%
  Percentage of dose in Brain: 0.014%
  Percentage of dose in Heart: 0.017%
  Percentage of dose in Kidney: 0.11%
  Percentage of dose in Liver: 7.03%
  Percentage of dose in Spleen: 0.34%
[4]; tail vein bolus, 14C, 7-day
  Percentage of dose in Bone: 3.51%
  Percentage of dose in Brain: LOD
  Percentage of dose in Heart: LOD
  Percentage of dose in Kidney: 0.020%
  Percentage of dose in Liver: 0.61%
  Percentage of dose in Spleen: 0.086%
[4]; tail vein bolus, 14C, 14-day
  Percentage of dose in Bone: 2.52%
  Percentage of dose in Brain: LOD
  Percentage of dose in Heart: LOD
  Percentage of dose in Kidney: 0.013%
  Percentage of dose in Liver: 0.27%
  Percentage of dose in Spleen: 0.050%
[4]; tail vein bolus, 14C, 28-day
  Percentage of dose in Bone: 2.44%
  Percentage of dose in Brain: LOD
  Percentage of dose in Heart: LOD
  Percentage of dose in Kidney: 0.0092%
  Percentage of dose in Liver: 0.10%
  Percentage of dose in Spleen: 0.039%

Reference: patent publication US9650414B1, “Dual-action EP4 agonist—bisphosphonate conjugates and uses thereof” (Simon Fraser University, priority 2014, dated 2017)
